Results as given in patent US20230038761, “REGULATION OF VON WILLEBRAND FACTOR (VWF)” (BAND THERAPEUTICS, LLC, published 2023).

B1: BT200/BT101 duplex (dsRNA)
RNA 1: GCCAGGGACCUAAGACACAUGUCCCUGGC
RNA 2: ACAUGUGUCUUAGGUCCCUGGCT
modifications: all residues 2'-OMe in both strands; BT200 5' PEG40K-NH; 3' idT on both strands

Legend:
[1] = molecular target: T1, von Willebrand factor (VWF) (Homo sapiens, UniProt P04275 SEQ:764-2813); test: ELISA; no OD increase up to 10 uM BT200 after pre-incubation with BT101 at 1:1; dPBS, 37 C
T1 sequence (P04275 764-2813 Q852R): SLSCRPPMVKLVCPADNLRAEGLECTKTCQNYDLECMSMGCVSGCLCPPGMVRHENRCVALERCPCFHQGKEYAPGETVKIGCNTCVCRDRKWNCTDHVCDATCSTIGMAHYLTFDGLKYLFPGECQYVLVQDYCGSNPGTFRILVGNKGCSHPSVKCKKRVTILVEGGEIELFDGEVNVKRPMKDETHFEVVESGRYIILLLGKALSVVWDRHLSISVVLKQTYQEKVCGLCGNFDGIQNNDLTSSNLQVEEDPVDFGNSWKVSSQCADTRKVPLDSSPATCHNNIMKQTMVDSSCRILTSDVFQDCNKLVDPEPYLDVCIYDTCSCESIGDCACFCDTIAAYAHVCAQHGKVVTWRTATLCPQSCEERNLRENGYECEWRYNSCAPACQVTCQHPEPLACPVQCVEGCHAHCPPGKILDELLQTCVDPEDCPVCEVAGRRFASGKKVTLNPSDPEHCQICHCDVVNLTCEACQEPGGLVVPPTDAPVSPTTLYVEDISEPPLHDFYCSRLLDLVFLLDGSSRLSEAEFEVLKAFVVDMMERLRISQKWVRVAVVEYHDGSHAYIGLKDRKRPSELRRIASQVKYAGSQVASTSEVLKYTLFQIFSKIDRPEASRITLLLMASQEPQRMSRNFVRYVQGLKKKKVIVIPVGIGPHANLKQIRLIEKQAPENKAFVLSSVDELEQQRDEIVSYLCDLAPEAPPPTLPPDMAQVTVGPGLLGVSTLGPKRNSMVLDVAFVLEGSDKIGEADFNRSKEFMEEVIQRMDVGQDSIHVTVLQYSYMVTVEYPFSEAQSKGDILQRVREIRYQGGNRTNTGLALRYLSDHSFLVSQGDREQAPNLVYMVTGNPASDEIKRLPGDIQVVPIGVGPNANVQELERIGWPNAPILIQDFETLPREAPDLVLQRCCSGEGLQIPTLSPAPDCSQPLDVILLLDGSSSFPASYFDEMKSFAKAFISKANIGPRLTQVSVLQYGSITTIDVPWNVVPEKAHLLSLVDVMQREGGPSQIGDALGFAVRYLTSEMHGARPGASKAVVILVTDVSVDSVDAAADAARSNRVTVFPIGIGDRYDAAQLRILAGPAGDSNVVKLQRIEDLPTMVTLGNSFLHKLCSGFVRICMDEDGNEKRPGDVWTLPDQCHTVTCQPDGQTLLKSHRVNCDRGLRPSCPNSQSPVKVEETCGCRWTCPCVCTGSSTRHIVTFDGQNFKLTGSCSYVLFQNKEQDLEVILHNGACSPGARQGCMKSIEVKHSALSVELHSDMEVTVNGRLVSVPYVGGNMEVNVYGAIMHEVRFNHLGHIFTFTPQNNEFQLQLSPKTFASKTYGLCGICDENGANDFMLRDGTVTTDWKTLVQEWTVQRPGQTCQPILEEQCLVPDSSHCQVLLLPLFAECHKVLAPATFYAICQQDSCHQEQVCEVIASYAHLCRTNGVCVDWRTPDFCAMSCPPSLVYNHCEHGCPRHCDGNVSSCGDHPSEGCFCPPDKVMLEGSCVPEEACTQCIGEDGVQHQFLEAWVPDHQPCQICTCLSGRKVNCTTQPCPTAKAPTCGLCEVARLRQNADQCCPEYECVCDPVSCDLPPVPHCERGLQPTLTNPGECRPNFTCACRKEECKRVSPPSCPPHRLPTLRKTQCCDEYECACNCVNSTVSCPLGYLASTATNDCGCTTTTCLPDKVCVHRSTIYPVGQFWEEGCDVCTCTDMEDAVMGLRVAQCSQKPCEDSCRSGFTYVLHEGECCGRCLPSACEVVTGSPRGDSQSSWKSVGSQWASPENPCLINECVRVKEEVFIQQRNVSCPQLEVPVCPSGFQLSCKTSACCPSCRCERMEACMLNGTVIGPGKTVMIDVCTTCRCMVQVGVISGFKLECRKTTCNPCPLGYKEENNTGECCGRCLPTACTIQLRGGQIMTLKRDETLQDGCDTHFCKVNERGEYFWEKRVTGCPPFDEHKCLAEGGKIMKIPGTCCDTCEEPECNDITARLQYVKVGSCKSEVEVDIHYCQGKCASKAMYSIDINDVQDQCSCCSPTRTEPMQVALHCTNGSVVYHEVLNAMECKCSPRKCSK
Experimental: (§1) The affinity of BT200, with or without pre-incubation with BT101, for purified human VWF was evaluated using an enzyme-linked immunosorbent assay (ELISA) method. In this study, purified human VWF protein was dissolved in Dulbecco's phosphate buffered saline (dPBS) buffer at a concentration of 10 μg/mL and 100 μL of this solution was added to each well of a Nunc Maxisorp 96-well plate. The plate was incubated overnight at 4° C. The following day, the plate was washed 3 times, followed by blocking with 5% bovine serum albumin (BSA) in dPBS at room temperature for 90 minutes. The blocked plate was then washed 3 times before adding either BT200 at concentrations of 0.3, 1, 3, 10, 30, 100, 300, 1000, 3000, and 10000 nM or a pre-incubated 1:1 molar ratio of BT101:BT200 at the same concentrations. BT101 and BT200 were mixed and incubated at 37° C. for 30 minutes prior to addition to the plate.
(§2) Plates were then incubated at 37° C. for 2 hours. Each plate was then washed 3 times and 100 μL of anti-PEG antibody at 1 μg/mL in 1% BSA/dPBS was added to each well and incubated for 1 hour at room temperature. […] To stop the reaction, 100 μL of 2 N H₂SO₄ was added to each well and the plate was then read at 450 nm for absorbance and the mean absorbance under each set of conditions was recorded.

[2] = molecular target: T1, von Willebrand factor (VWF); test: ELISA with anti-PEG detection; dPBS, 37 C, 2 h
Experimental: as §1, §2

| Binder | binding result [1] | EC50 [2] [nM] |
| --- | --- | --- |
| B1 | no binding | – |
| GCCAGGGACCUAAGACACAUGUCCCUGGC (ssRNA, all residues 2'-OMe; 5' PEG40K-NH; 3' idT (final t of SEQ 6)) [BT200] | – | 331 |
